Assay results reported in ChEMBL document CHEMBL1126368, “Carbocyclic phosphonate analogs of 2,3-dideoxyadenosine-5-monophosphate as substrates of 5-phosphoribosyl-1-pyrophosphate (PRPP) synthetate” (Bioorg Med Chem Lett, 1992).

Tests used:
[1] = Ratio (FA) of Vmax/Km of AMP to that of compound
[2] = Ratio (FA) of Vmax/Km of the compound
[3] = substrate: Nc1ncnc2c1ncn2CCOCP(=O)(O)O; experiment: (§1) Vmax as a substrate for Pyrophosphate Synthetase (PRPP); conditions: Escherichia coli
[4] = substrate: Nc1ncnc2c1ncn2CCCCCP(=O)(O)O; experiment: as §1; conditions: Escherichia coli
[5] = substrate: Nc1ncnc2c1ncn2C1O[C@H](COP(=O)(O)O)[C@H](O)[C@@H]1O; experiment: as §1; conditions: Escherichia coli
[6] = substrate: Nc1ncnc2c1ncn2[C@@H]1C[C@H](CCP(=O)(O)O)C[C@@H]1O; experiment: as §1; conditions: Escherichia coli
[7] = substrate: Nc1ncnc2c1ncn2[C@H]1CC[C@@H](CCP(=O)(O)O)C1; experiment: as §1; conditions: Escherichia coli
[8] = substrate: Nc1ncnc2c1ncn2[C@H]1CC[C@@H](CCOP(=O)(O)O)C1; experiment: as §1; conditions: Escherichia coli
[9] = substrate: Nc1ncnc2c1ncn2[C@H]1CC[C@@H](CC(F)(F)P(=O)(O)O)C1; experiment: as §1; conditions: Escherichia coli
[10] = substrate: Nc1ncnc2c1ncn2C1CCC(COP(=O)(O)O)O1; experiment: Km value as a substrate for 0.4 ug of Phosphribosyl Pyrophosphate Synthetase (PRPP) per assay; conditions: Escherichia coli
[11] = substrate: Nc1ncnc2c1ncn2C1CCC(COP(=O)(O)O)O1; experiment: Vmax as a substrate for 0.4 ug of Pyrophosphate Synthetase (PRPP) per assay; conditions: Escherichia coli
[12] = substrate: Nc1ncnc2c1ncn2C1CCC(COP(=O)(O)O)O1; experiment: Vmax as a substrate for per mg of Pyrophosphate Synthetase (PRPP); conditions: Escherichia coli
[13] = substrate: Nc1ncnc2c1ncn2CCCCCP(=O)(O)O; experiment: (§2) Km value as a substrate for Pyrophosphate Synthetase (PRPP); conditions: Escherichia coli
[14] = substrate: Nc1ncnc2c1ncn2C1O[C@H](COP(=O)(O)O)[C@H](O)[C@@H]1O; experiment: as §2; conditions: Escherichia coli
[15] = substrate: Nc1ncnc2c1ncn2[C@@H]1C[C@H](CCP(=O)(O)O)C[C@@H]1O; experiment: as §2; conditions: Escherichia coli
[16] = substrate: Nc1ncnc2c1ncn2[C@H]1CC[C@@H](CCP(=O)(O)O)C1; experiment: as §2; conditions: Escherichia coli
[17] = substrate: Nc1ncnc2c1ncn2[C@H]1CC[C@@H](CCOP(=O)(O)O)C1; experiment: as §2; conditions: Escherichia coli

Molecule `Nc1ncnc2c1ncn2[C@H]1CC[C@@H](CCP(=O)(O)O)C1` has a Ratio [1] of 63.

`Nc1ncnc2c1ncn2CCCCCP(=O)(O)O` showed a Ratio [1] of 32.

Work on `Nc1ncnc2c1ncn2[C@@H]1C[C@H](CCP(=O)(O)O)C[C@@H]1O` yielded a Ratio [1] of 11.

In the case of `Nc1ncnc2c1ncn2[C@@H]1O[C@H](COP(=O)(O)O)[C@H](O)[C@@H]1O`, the Ratio [1] is reported as 13.

Work on `Nc1ncnc2c1ncn2C1CCC(COP(=O)(O)O)O1` (stereo unspecified) yielded a Ratio [2] of 1.

In the case of `Nc1ncnc2c1ncn2[C@H]1CC[C@@H](CCOP(=O)(O)O)C1`, the Ratio [1] is reported as 179.

B1: Ribose-phosphate pyrophosphokinase 1 (Homo sapiens), P60891 (protein)
chain: MPNIKIFSGSSHQDLSQKIADRLGLELGKVVTKKFSNQETCVEIGESVRGEDVYIVQSGCGEINDNLMELLIMINACKIASASRVTAVIPCFPYARQDKKDKSRAPISAKLVANMLSVAGADHIITMDLHASQIQGFFDIPVDNLYAEPAVLKWIRENISEWRNCTIVSPDAGGAKRVTSIADRLNVDFALIHKERKKANEVDRMVLVGDVKDRVAILVDDMADTCGTICHAADKLLSAGATRVYAILTHGIFSGPAISRINNACFEAVVVTNTIPQEDKMKHCSKIQVIDISMILAEAIRRTHNGESVSYLFSHVPL
B1 gave a Vmax [3] of 0.2%, a Vmax [4] of 7.5% and a Vmax [5] of 45%. The Vmax [6] was 7.4%, the Vmax [7] was 3% and the Vmax [8] was 0.5%. The Vmax [9] was 0.07%, the Km [10] was 290 µM and the Vmax [11] was 100%. For the same molecule, the Vmax [12] was 34.5 µM/h, the Km [13] was 690 µM and the Km [14] was 1700 µM. For the same molecule, the Km [15] was 240 µM, the Km [16] was 550 µM and the Km [17] was 260 µM.
